Data set [1] deals with T1, Kv3.4a/Kv3.1b heteromeric channels (Rattus norvegicus, UniProt P25122+Q63734).
T1 construct: expressed in transfected cells; host or cells: HEK293
T1 sequence (Q63734 1-625): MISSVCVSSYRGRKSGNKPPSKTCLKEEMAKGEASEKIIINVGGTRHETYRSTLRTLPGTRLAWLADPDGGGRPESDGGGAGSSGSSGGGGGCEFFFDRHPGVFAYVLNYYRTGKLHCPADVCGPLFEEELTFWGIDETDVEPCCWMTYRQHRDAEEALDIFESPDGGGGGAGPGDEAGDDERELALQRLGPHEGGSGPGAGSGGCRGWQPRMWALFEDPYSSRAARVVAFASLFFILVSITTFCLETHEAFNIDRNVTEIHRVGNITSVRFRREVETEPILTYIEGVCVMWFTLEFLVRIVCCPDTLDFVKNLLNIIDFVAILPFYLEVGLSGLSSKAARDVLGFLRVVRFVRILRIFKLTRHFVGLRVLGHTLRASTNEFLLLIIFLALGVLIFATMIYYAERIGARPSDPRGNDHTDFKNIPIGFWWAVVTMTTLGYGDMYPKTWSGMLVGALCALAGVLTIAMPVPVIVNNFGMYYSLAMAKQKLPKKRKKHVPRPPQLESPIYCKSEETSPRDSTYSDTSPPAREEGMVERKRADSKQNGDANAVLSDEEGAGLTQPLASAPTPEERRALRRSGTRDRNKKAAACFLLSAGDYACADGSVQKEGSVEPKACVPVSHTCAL
T1 sequence (P25122 1-585): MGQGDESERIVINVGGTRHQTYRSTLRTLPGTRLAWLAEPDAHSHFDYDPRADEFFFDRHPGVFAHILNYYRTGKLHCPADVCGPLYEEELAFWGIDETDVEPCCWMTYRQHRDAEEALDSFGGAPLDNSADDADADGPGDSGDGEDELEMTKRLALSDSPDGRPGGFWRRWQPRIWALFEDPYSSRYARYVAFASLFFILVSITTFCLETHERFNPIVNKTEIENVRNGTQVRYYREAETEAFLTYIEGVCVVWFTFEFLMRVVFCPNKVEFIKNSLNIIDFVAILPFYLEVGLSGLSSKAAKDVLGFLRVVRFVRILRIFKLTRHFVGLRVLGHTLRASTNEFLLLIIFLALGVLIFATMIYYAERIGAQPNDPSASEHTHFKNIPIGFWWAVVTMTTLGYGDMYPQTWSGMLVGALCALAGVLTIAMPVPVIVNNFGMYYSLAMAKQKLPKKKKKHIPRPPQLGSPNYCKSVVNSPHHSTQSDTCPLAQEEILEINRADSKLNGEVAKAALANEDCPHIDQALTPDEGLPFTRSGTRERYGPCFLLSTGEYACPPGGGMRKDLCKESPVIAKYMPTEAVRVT
It is filed as cell-based. From the text: Electrophysiology. Whole-cell recordings used standard techniques^27,28. The internal solution consisted of (in mM): 30-90 K2SO4, 0-60 N-methyl-D-glucamine, 2 MgCl2, 40 HEPES, 5 EGTA, 12 phosphocreatine, 2 Na2ATP, 0.2 Na3GTP, and 0.1 leupeptin, pH 7.2 with H2SO4 (osmolarity 260-270 mOsm/l). The external solution consisted of (in mM): 140 Na-isethionate, 2 KCl, 4 MgCl2, 10 HEPES, 12 glucose and 0.001 TTX, pH 7.35 with NaOH (osmolarity 295-305 mOsm/l). The internal solution for current clamp recordings consisted of (in mM) 110 potassium methylsulphate, 2 MgCl2, 40 HEPES, 5 EGTA, 12 phosphocreatine, 2 Na2ATP, 0.2 Na3GTP, and 0.1 leupeptin, pH 7.2 with H2SO4 (osmolarity 260-270 mOsm/l). In the case of current clamp recordings, TTX was omitted from external solution. For the recordings in the presence of Ca^+2 ions EGTA was omitted from internal solution and 4 mM of MgCl2 was substituted by 2 mM of CaCl2 and 2 mM of MgCl2. […] Recordings were obtained with Axon Instruments 200 patch-clamp amplifier and controlled and monitored with a PC running pClamp software (version 7.0) (Axon Instruments Inc., Union City, Calif.). […] After seal rupture, series resistance (2-10 MΩ) was compensated (75-90%) and periodically monitored. […]
Single cell RT-PCR (scRT-PCR). […] In the case of co-transfection with Kv3.4a and Kv3.1b cDNA, single cell RT-PCR was used to confirm the presence of both mRNAs in the recorded cell. […]

Data set [2] relates to Kv3.4 mRNA. Briefly: siRNA suppression of Kv3.4 mRNA in HEK293/Kv3.4 cells, real-time quantitative PCR. Particulars: normalized to transfection efficiency (60%). It is filed as cell-based, rat. The method, then: For example, mammalian cells expressing the potassium channel were tested with siRNA vectors. HEK 293/Kv3.4a cells were generated by stable transfection with a linearized form of pcDNA3/Kv3.4a (Baranauskas et al., Nat Neurosci., 6:258 (2003)), and geneticin selection of a single clone. Kv3.4 expression was confirmed by quantitative PCR and Western blotting. Four target sequences were chosen (#1, #2, #3, and #4, described in more detail below). HEK293/Kv3.4 cells were transfected with these siRNA. To monitor transfection efficiency fluorescein labeled luciferase GL2-F1 siRNA (Dharmacon) was used. In transfected cells, labeled duplexes are detectable as discrete punctate cytoplasmic dots (Holen et al., Nucleic Acids Res., 30:1757 (2002)). Transfection efficiency was 60%, probably, due to high passage number.
Real-time quantitative PCR employing SYBR green fluorescence detection was used to measure Kv3.4 cDNA abundance. As a control for the non-specific effects of siRNA duplexes, siRNA targeting Kv3.1 was used. The differences in the amount of extracted RNA were taken into account by normalization to β-actin. Variability in the amplification during PCR reactions was estimated by running five PCR reactions for the same cDNA sample. […]

Data set [3] concerns the target Kv3.4 protein (native, rat brain membranes / fast-spiking neurons) (rat) (UniProt Q63734). The experiment in a line: cell-based or functional assay.
Data set [4] addresses Kv3.1b (rat) (UniProt P25122). The experiment in a line: cell-based or functional assay.

On to `CC[N+](CC)(CC)CC` [TEA, tetraethylammonium], for which, in data set [1], the “block of K+ currents in Kv3.4a/Kv3.1b co-transfected HEK293 cells” value is reported as “blocked”.

On to “duplex #4: 21-nt double-stranded RNA targeting rat Kv3.4 site D, GGCAGTGTTGAGCCGAAAC (SEQ ID NO:4), position 1825-1843 (second strand not cited, further chemistry not given here; listed as Rattus rattus)”, for which, in data set [2], the “estimated suppression of the levels of Kv3.4 mRNA in the transfected cells” value is on record as 50%.

Molecule “BDS-I (from UniProt P11494 1-43) (peptide)” had a duration of spikes in FS neurons in data set [3] of 53%.

B1: Kv3.4a (protein, rat, UniProt Q63734 1-625, looked up)
chain: MISSVCVSSYRGRKSGNKPPSKTCLKEEMAKGEASEKIIINVGGTRHETYRSTLRTLPGTRLAWLADPDGGGRPESDGGGAGSSGSSGGGGGCEFFFDRHPGVFAYVLNYYRTGKLHCPADVCGPLFEEELTFWGIDETDVEPCCWMTYRQHRDAEEALDIFESPDGGGGGAGPGDEAGDDERELALQRLGPHEGGSGPGAGSGGCRGWQPRMWALFEDPYSSRAARVVAFASLFFILVSITTFCLETHEAFNIDRNVTEIHRVGNITSVRFRREVETEPILTYIEGVCVMWFTLEFLVRIVCCPDTLDFVKNLLNIIDFVAILPFYLEVGLSGLSSKAARDVLGFLRVVRFVRILRIFKLTRHFVGLRVLGHTLRASTNEFLLLIIFLALGVLIFATMIYYAERIGARPSDPRGNDHTDFKNIPIGFWWAVVTMTTLGYGDMYPKTWSGMLVGALCALAGVLTIAMPVPVIVNNFGMYYSLAMAKQKLPKKRKKHVPRPPQLESPIYCKSEETSPRDSTYSDTSPPAREEGMVERKRADSKQNGDANAVLSDEEGAGLTQPLASAPTPEERRALRRSGTRDRNKKAAACFLLSAGDYACADGSVQKEGSVEPKACVPVSHTCAL
In data set [4], B1 displayed a fast inactivation time constant of K+ currents in co-transfected HEK293 cells of 38 ms; a mean burst duration (long bursts), single channel recording of co-transfected HEK293 cells of 250 ms; a mean burst duration (short bursts), single channel recording of co-transfected HEK293 cells of 16.2 ms.

The values above are taken from patent publication US7629323B2, “Manipulation of neuronal ion channels” (Northwestern University, priority 2003, dated 2009).
